Laboratory results from PMC3079244 (Biochemistry, 2011).

Legend:
[1] = biological target: TylM1 (Streptomyces fradiae, UniProt P95748); assay: X-ray crystal structure, […] Å; assay type: binding; conditions: pH 7.0
[2] = biological target: the molecule itself; assay: crystal structure
[3] = biological target: the molecule itself; assay: crystal structure; remark: listed apart in the source

C[S+](CC[C@H](N)C(=O)O)C[C@H]1O[C@@H](n2cnc3c(N)ncnc32)[C@H](O)[C@@H]1O (some centres unmarked) [SAM]
X-ray crystal structure, 1.35 Å ([1]; ternary complex with dTDP-phenol, methyl donor site): The SAM cofactor abuts the first three β-strands of the N-terminal domain

Cc1cn([C@H]2C[C@H](O)[C@@H](COP(=O)(O)OP(=O)(O)Oc3ccccc3)O2)c(=O)[nH]c1=O [dTDP-phenol]
X-ray crystal structure, 1.35 Å ([1]; ternary complex with SAM, sugar-nucleotide site): a close-up view of the binding pocket for dTDP-phenol is presented

B1: TylM1 from Streptomyces fradiae (N,N-dimethyltransferase), wild type (enzyme, UniProt P95748 1-255, looked up)
chain: MAHSSATAGPQADYSGEIAELYDLVHQGKGKDYHREAADLAALVRRHSPKAASLLDVACGTGMHLRHLADSFGTVEGLELSADMLAIARRRNPDAVLHHGDMRDFSLGRRFSAVTCMFSSIGHLAGQAELDAALERFAAHVLPDGVVVVEPWWFPENFTPGYVAAGTVEAGGTTVTRVSHSSREGEATRIEVHYLVAGPDRGITHHEESHRITLFTREQYERAFTAAGLSVEFMPGGPSGRGLFTGLPGAKGETR
stoichiometry N [2]: 2

B2: TylM1 H123A mutant protein (enzyme, Streptomyces fradiae, UniProt P95748 1-255, looked up)
chain: MAHSSATAGPQADYSGEIAELYDLVHQGKGKDYHREAADLAALVRRHSPKAASLLDVACGTGMHLRHLADSFGTVEGLELSADMLAIARRRNPDAVLHHGDMRDFSLGRRFSAVTCMFSSIGALAGQAELDAALERFAAHVLPDGVVVVEPWWFPENFTPGYVAAGTVEAGGTTVTRVSHSSREGEATRIEVHYLVAGPDRGITHHEESHRITLFTREQYERAFTAAGLSVEFMPGGPSGRGLFTGLPGAKGETR
binding result [3]: binds

B3: TylM1 H123N mutant protein (enzyme, Streptomyces fradiae, UniProt P95748 1-255, looked up)
chain: MAHSSATAGPQADYSGEIAELYDLVHQGKGKDYHREAADLAALVRRHSPKAASLLDVACGTGMHLRHLADSFGTVEGLELSADMLAIARRRNPDAVLHHGDMRDFSLGRRFSAVTCMFSSIGNLAGQAELDAALERFAAHVLPDGVVVVEPWWFPENFTPGYVAAGTVEAGGTTVTRVSHSSREGEATRIEVHYLVAGPDRGITHHEESHRITLFTREQYERAFTAAGLSVEFMPGGPSGRGLFTGLPGAKGETR
binding result [3]: binds
